Laboratory results reported in publication PMC5437232, “Structure of human promyeloperoxidase (proMPO) and the role of the propeptide in processing and maturation” (The Journal of Biological Chemistry, 2017).

Target: the molecule itself
Experiment: SAXS; proteins in solution, 50 mM PBS, pH 7.4; concentrated to 1 mg/liter; 20 °C; SIBYLS beam line 12.3.1; Guinier plots and pair-density distributions compared with the crystal structures

B1: dimeric mature leukocyte myeloperoxidase (complex)
light: not shown
heavy: TGVNCETSCVQQPPCFPLKIPPNDPRIKNQADCIPFFRSCPACPGSNITIRNQINALTSFVDASMVYGSEEPLARNLRNMSNQLGLLAVNQRFQDNGRALLPFDNLHDDPCLLTNRSARIPCFLAGDTRSSEMPELTSMHTLLLREHNRLATELKSLNPRWDGERLYQEARKIVGAMVQIITYRDYLPLVLGPTAMRKYLPTYRSYNDSVDPRIANVFTNAFRYGHTLIQPFMFRLDNRYQPMEPNPRVPLSRVFFASWRVVLEGGIDPILRGLMATPAKLNRQNQIAVDEIRERLFEQVMRIGLDLPALNMQRSRDHGLPGYNAWRRFCGLPQPETVGQLGTVLRNLKLARKLMEQYGTPNNIDIWMGGVSEPLKRKGRVGPLLACIIGTQFRKLRDGDRFWWENEGVFSMQQRQALAQISLPRIICDNTGITTVSKNNIFMSNSYPRDFVNCSTLPALNLASWREAS
modifications: heme covalently bound | glycosylated; heme covalently bound; interchain disulfide Cys-319-Cys-319 between the two H-chains
notes: Myeloperoxidase, human, 14.5-kDa light polypeptide (L-chain) of mature MPO; three N termini found by mass spectrometry: Gly-164, Val-165 and Thr-166; ends before the excised peptide that begins at Ala-273; numbers on the 745-aa primary translation product; Myeloperoxidase, human, 59-kDa heavy polypeptide (H-chain) of mature MPO; three N termini found by mass spectrometry: Thr-277, Gly-278 and …
stoichiometry N: 2
